The supplement of paper PMC11246515
± gives the standard deviation of the averaged measurements.

Assay: total protein half-life in vivo (active degradation + dilution); higher = more stable protein
[1] = E. coli NCM3722 delta-lon, growth: N-lim chemostat, doubling time 6 h
[2] = wild type E. coli NCM3722, growth: N-lim chemostat, doubling time 12 h
[3] = wild type E. coli NCM3722, growth: P-lim chemostat, doubling time 12 h
[4] = E. coli NCM3722 delta-clpP delta-lon delta-hslV, growth: N-lim chemostat, doubling time 6 h
[5] = wild type E. coli NCM3722, growth: C-lim chemostat, doubling time 12 h
[6] = E. coli NCM3722 delta-clpP, growth: N-lim chemostat, doubling time 6 h
[7] = E. coli NCM3722 delta-smpB, growth: N-lim chemostat, doubling time 6 h
[8] = wild type E. coli NCM3722, growth: C-lim chemostat, doubling time 3 h
[9] = wild type E. coli NCM3722, growth: C-lim chemostat, doubling time 6 h
[10] = wild type E. coli NCM3722, growth: N-lim chemostat, doubling time 6 h
[11] = wild type E. coli NCM3722, growth: P-lim chemostat, doubling time 6 h
[12] = E. coli NCM3722 delta-hslV, growth: N-lim chemostat, doubling time 6 h

Sequence	total protein half-life in vivo [1]	total protein half-life in vivo [2]	total protein half-life in vivo [3]	total protein half-life in vivo [4]	total protein half-life in vivo [5]	total protein half-life in vivo [6]	total protein half-life in vivo [7]	total protein half-life in vivo [8]	total protein half-life in vivo [9]	total protein half-life in vivo [10]	total protein half-life in vivo [11]	total protein half-life in vivo [12]
MRKLWNALRRPSARWSVLALVAIGIVIGIALIVLPHVGIKVTSTTEFCVSCHSMQPVYEEYKQSVHFQNASGVRAECHDCHIPPDIPGMVKRKLEASNDIYQTFIAHSIDTPEKFEAKRAELAEREWARMKENNSATCRSCHNYDAMDHAKQHPEAARQMKVAAKDNQSCIDCHKGIAHQLPDMSSGFRKQFDELRASANDSGDTLYSIDIKPIYAAKGDKEASGSLLPASEVKVLKRDGDWLQIEITGWTESAGRQRVLTQFPGKRIFVASIRGDVQQQVKTLEKTTVADTNTEWSKLQATAWMKKGDMVNDIKPIWAYADSLYNGTCNQCHGAPEIAHFDANGWIGTLNGMIGFTSLDKREERTLLKYLQMNASDTAGKAHGDKKEEK	5.27 h	9.72 h	10.5 h	–	–	–	–	–	–	–	–	–
MKQWIAALLLMLIPGVQAAKPQKVTLMVDDVPVAQVLQALAEQEKLNLVVSPDVSGTVSLHLTDVPWKQALQTVVKSAGLITRQEGNILSVHSIAWQNNNIARQEAEQARAQANLPLENRSITLQYADAGELAKAGEKLLSAKGSMTVDKRTNRLLLRDNKTALSALEQWVAQMDLPVGQVELSAHIVTINEKSLRELGVKWTLADAQHAGGVGQVTTLGSDLSVATATTHVGFNIGRINGRLLDLELSALEQKQQLDIIASPRLLASHLQPASIKQGSEIPYQVSSGESGATSVEFKEAVLGMEVTPTVLQKGRIRLKLHISQNVPGQVLQQADGEVLAIDKQEIETQVEVKSGETLALGGIFTRKNKSGQDSVPLLGDIPWFGQLFRHDGKEDERRELVVFITPRLVSSE	–	4.56 h	4.33 h	3.42 ± 1.4 h	6.11 h	–	–	–	–	–	–	–
MYFLNDLNFSRRDAGFKARKDALDIASDYENISVVNIPLWGGVVQRIISSVKLSTFLCGLENKDVLIFNFPMAKPFWHILSFFHRLLKFRIVPLIHDIDELRGGGGSDSVRLATCDMVISHNPQMTKYLSKYMSQDKIKDIKIFDYLVSSDVEHRDVTDKQRGVIYAGNLSRHKCSFIYTEGCDFTLFGVNYENKDNPKYLGSFDAQSPEKINLPGMQFGLIWDGDSVETCSGAFGDYLKFNNPHKTSLYLSMELPVFIWDKAALADFIVDNRIGYAVGSIKEMQEIVDSMTIETYKQISENTKIISQKIRTGSYFRDVLEEVIDDLKTR	5.02 ± 0.14 h	–	–	6.47 h	–	7.29 h	4.15 ± 0.31 h	–	–	–	–	–
MSSTNIEQVMPVKLAQALANPLFPALDSALRSGRHIGLDELDNHAFLMDFQEYLEEFYARYNVELIRAPEGFFYLRPRSTTLIPRSVLSELDMMVGKILCYLYLSPERLANEGIFTQQELYDELLTLADEAKLLKLVNNRSTGSDVDRQKLQEKVRSSLNRLRRLGMVWFMGHDSSKFRITESVFRFGADVRAGDDPREAQRRLIRDGEAMPIENHLQLNDETEENQPDSGEEE	6.21 ± 0.7 h	9.43 ± 0.28 h	10.7 ± 0.54 h	6.36 ± 0.27 h	11.1 ± 0.5 h	6.18 ± 0.4 h	5.67 ± 0.27 h	2.98 ± 0.069 h	5.85 ± 0.17 h	5.85 ± 0.31 h	5.716 ± 0.029 h	–
MAETKIVVGPQPFSVGEEYPWLAERDEDGAVVTFTGKVRNHNLGDSVNALTLEHYPGMTEKALAEIVDEARNRWPLGRVTVIHRIGELWPGDEIVFVGVTSAHRSSAFEAGQFIMDYLKTRAPFWKREATPEGDRWVEARESDQQAAKRW	4.42 ± 0.088 h	6.78 h	11.1 ± 0.62 h	4.68 ± 0.7 h	8.46 ± 0.13 h	3.99 ± 0.26 h	3.5 ± 0.33 h	2.7 ± 0.15 h	5.78 ± 0.33 h	4.573 ± 0.012 h	6.8 ± 1.3 h	5.32 ± 0.47 h
MSAIEVKNLVKKFHGQTVLHGIDLEVKPGEVVAIIGPSGSGKTTLLRSINLLEQPEAGTITVGDITIDTARSLSQQKSLIRQLRQHVGFVFQNFNLFPHRTVLENIIEGPVIVKGEPKEEATARARELLAKVGLAGKETSYPRRLSGGQQQRVAIARALAMRPEVILFDEPTSALDPELVGEVLNTIRQLAQEKRTMVIVTHEMSFARDVADRAIFMDQGRIVEQGAAKALFADPEQPRTRQFLEKFLLQ	6.65 ± 1.8 h	9.13 ± 1.8 h	12.2 ± 1.3 h	–	10.2 ± 1.1 h	5.314 ± 0.015 h	5.38 ± 0.14 h	3.11 ± 0.18 h	5.25 ± 0.71 h	6.41 ± 1.5 h	5.16 ± 0.33 h	5.44 ± 0.48 h
MTKSELIERLATQQSHIPAKTVEDAVKEMLEHMASTLAQGERIEIRGFGSFSLHYRAPRTGRNPKTGDKVELEGKYVPHFKPGKELRDRANIYG [P0A6Y1]	6.3 ± 0.4 h	8.31 ± 2.4 h	5.3658 ± 0.0042 h	6.88 ± 0.81 h	6.05 ± 0.37 h	5.26 ± 0.3 h	4.64 ± 0.21 h	2.47 ± 0.093 h	4.3 ± 0.44 h	4.71 ± 0.18 h	2.62 ± 0.24 h	5.99 ± 1.1 h
MKPNIHPEYRTVVFHDTSVDEYFKIGSTIKTDREIELDGVTYPYVTIDVSSKSHPFYTGKLRTVASEGNVARFTQRFGRFVSTKKGA [P0A7N1]	–	–	–	–	9.33 h	–	2.8 h	2.784 ± 0.022 h	5.71 ± 0.51 h	–	6.22 h	–
MILLIDNYDSFTWNLYQYFCELGADVLVKRNDALTLADIDALKPQKIVISPGPCTPDEAGISLDVIRHYAGRLPILGVCLGHQAMAQAFGGKVVRAAKVMHGKTSPITHNGEGVFRGLANPLTVTRYHSLVVEPDSLPACFDVTAWSETREIMGIRHRQWDLEGVQFHPESILSEQGHQLLANFLHR	4.94 ± 0.68 h	8.41 ± 0.11 h	12.9 ± 0.99 h	5.21 ± 0.68 h	10 h	5.02 h	4.35 ± 0.22 h	3.31 ± 0.049 h	5.88 ± 0.4 h	–	6.18 ± 0.066 h	3.72 ± 1.2 h
MQERIKACFTESIQTQIAAAEALPDAISRAAMTLVQSLLNGNKILCCGNGTSAANAQHFAASMINRFETERPSLPAIALNTDNVVLTAIANDRLHDEVYAKQVRALGHAGDVLLAISTRGNSRDIVKAVEAAVTRDMTIVALTGYDGGELAGLLGPQDVEIRIPSHRSARIQEMHMLTVNCLCDLIDNTLFPHQDD	5.12 ± 0.18 h	7.55 ± 1 h	13 ± 3.2 h	5.68 ± 1.7 h	11.1 ± 0.025 h	6.95 ± 0.57 h	5.68 ± 1.4 h	3.087 ± 0.0052 h	5.56 ± 0.26 h	4.54 h	5.81 ± 0.52 h	4.6 ± 0.094 h
MIRTMLQGKLHRVKVTHADLHYEGSCAIDQDFLDAAGILENEAIDIWNVTNGKRFSTYAIAAERGSRIISVNGAAAHCASVGDIVIIASFVTMPDEEARTWRPNVAYFEGDNEMKRTAKAIPVQVA [P0A790]	6.3 h	2.2 h	4.54 ± 0.65 h	4.79 h	–	–	1.43 h	1.68 ± 0.15 h	3.1 h	2.24 h	2.12 h	1.54 ± 0.23 h
